# From patent US11124785B2, “Rothia subtilisins, S8A family proteases, as therapeutic enzymes for application in gluten intolerance disorders” (TRUSTEES OF BOSTON UNIVERSITY, priority 2016, dated 2021)
# Tests used:
# [1] = test system: R. mucilaginosa enzyme preparation (Rmep); assay: Inhibitor profile of Rmep (Suc-AAPF-pNA hydrolysis); format: biochemical, Rothia mucilaginosa; details: for inhibition of Rmep activity: AEBSF 10 mM, aprotinin 0.08 mM, E-64 0.1 mM, EDTA 1.5 mM, PMSF 1 mM, Rmep 5.7 μg/ml, Suc-AAPF-pNA
# Description: Inhibitors AEBSF, Aprotinin, E-64, EDTA, PMSF and Eglin C were tested at final concentrations of 10 mM, 0.08 mM, 0.1 mM, 1.5 mM, 1 mM, and 0.06 μM, respectively. Rmep was added at a final concentration of 5.7 μg/ml. The percent inhibition was determined from the ratio of the initial velocities of hydrolysis of Suc-AAPF-pNA (SEQ ID NO: 4) in the absence and presence of inhibitor.
# (§1) Hydrolysis of paranitroanilide-derivatized substrates—Paranitroanilide (pNA)-derivatized tripeptide substrates were chemically synthesized at >90% purity (21st Century Biochemicals, Marlborough, Mass.). The substrates obtained were Z-YPQ-pNA, Z-QQP-pNA, Z-LPY-pNA, Z-PFP-pNA, Z-PPF-pNA, where Z=benzyloxycarbonyl, Y=tyrosine, P=proline, Q=glutamine, L=leucine, and F=phenylalanine Suc-AAPF-pNA (SEQ ID NO: 4) was obtained from Sigma, where Suc=N-succinyl and A=alanine. The peptides were dissolved in 75-100% DMSO at 10 mM, and were used at a final concentration of 200 μM in 50 mM TrisHCl pH 8.0. Purified Rothia enzyme or subtilisin A from Bacillus licheniformis (Sigma) were tested at final concentrations of 1 μg/ml. Some experiments were conducted in the presence of inhibitors 4-(2-Aminoethyl) benzenesulfonyl fluoride (AEBSF), Aprotinin, E-64, EDTA, phenylmethanesulfonyl fluoride (PMSF) and Eglin C, which were tested at final concentrations of 10 mM, 0.08 mM, 0.1 mM, 1.5 mM, 1 mM, and 0.06-1.2 μM, respectively. Enzymes were preincubated with the inhibitors for 20 min before adding Suc-AAPF-pNA (SEQ ID NO: 4). Substrate hydrolysis was monitored for 10 h at 405 nm using a Genios microtiter plate reader (Tecan, Männedorf, Switzerland) in the kinetic mode at 37° C.
# Suc-AAPF-pNA = assay: Hydrolysis of paranitroanilide-derivatized substrate Suc-AAPF-pNA; format: biochemical; details: substrate 200 μM; enzyme 1 μg/ml (NattoK: dilution series); 50 mM TrisHCl pH 8.0, 37° C.
# Description: FIG. 4A and FIG. 4B are representative graphs of the hydrolysis of the substrates: Suc-AAPF-pNA (SEQ ID NO: 4), Z-YPQ-pNA, and Z-LPY-pNA, each at 200 μM, by Rmep and subtilisin A, respectively, each at 1 μg/ml.
# FIG. 8C show a representative graph of the hydrolysis of the substrate, Suc-AAPF-pNA (SEQ ID NO: 4), with a dilution series of NattoK. Suc-AAPF-pNA (SEQ ID NO: 4) was incubated […]. Hydrolysis was measured at 405 nm.
# as §1
# gliadins = assay: Gliadin degradation control of Example 3 (SDS-PAGE); format: biochemical; details: gliadins 500 μg/ml, enzyme 25 μg/ml, pH 8.0
# Description: (§2) FIGS. 15A-15F show effective ATI degradation by subtilisins from B. subtilis (nattokinase). […] ATI (500 μg/ml) incubated with Rmep from R. mucilaginosa (FIG. 15A) or nattokinase from B. subtilis (FIG. 15C) at 50, 25, or 10 μg/ml; FIGS. 15B and 15D, Gliadins (500 μg/ml) incubated with Rmep (FIG. 15B) or nattokinase (FIG. 15D) at 25 μg/ml. FIGS. 15E and 15F, ATIs incubated with control heat inactivated enzymes, Rmep (FIG. 15E) or nattokinase (FIG. 15F).
# (§3) ATIs were isolated from wheat cultivars as described^3. They were incubated at a final concentration of 500 μg/ml with 10, 25 or 50 μg/ml Rmep (from R. mucilaginosa), or nattokinase (from B. subtilis). The controls incubations were carried out with heat-inactivated Rmep and nattokinase. Experiments were conducted in 50 mM Tris-HCl, pH 8.0. After 0, 15 min, 30 min, 1 h, and 4 h incubation, 20 μl aliquots were removed, mixed with SDS-sample buffer, heated at 85° C. for 5 min and analyzed by 4-12% SDS PAGE. Proteins were visualized with Coomassie Blue staining.
# [2] = test system: α-gliadin derived 33-mer peptide; assay: Degradation of the 33-mer peptide (RP-HPLC); format: biochemical; details: 33-mer 250 μg/ml, NattoK 57 μg/ml, 0-120 min; large fragment remained
# Description: FIG. 8D is a representative chromatogram of the RP-HPLC analysis of the degradation of the gliadin-derived 33-mer (250 μg/ml) incubated for 0, 15, 30 and 120 min with NattoK 57 μg/ml).
# (§4) Degradation of mixed gliadins and the 33-mer peptide—Mixed gliadins were obtained from Sigma. A synthetic highly immunogenic α-gliadin derived 33-mer peptide (26) was synthesized at a purity of >90% (21st Century Biochemicals). Mixed gliadins or the 33-mer peptide (each at final concentration 250 μg/ml) were incubated with Rmep or subtilisin A (each at 57 μg/ml) in 50 mM TrisHCl, pH 8.0. After t=0, 15 min, 30 min, and 2 h, 100 μl sample aliquots were removed and boiled. Gliadin degradation was assessed by 4-12% SDS-PAGE followed by Coomassie staining, and 33-mer degradation was determined by RP-HPLC.
# Reversed-phase high performance liquid chromatography (RP-HPLC)—Separation of the 33-mer peptide and its fragments was achieved by RP-HPLC, using buffer A (0.1% trifluoroacetic acid) and buffer B (0.1% trifluoroacetic acid in 80% acetonitrile) at a gradient of 0-55% buffer B over 75 min time interval. The equipment used was an HPLC Model 715 (Gilson, Middleton, Wis.) and a C-18 column (TSK-GEL […], ODS-120T, TOSOHaas, Montgomeryville, Pa.) (22, 25).
# mixed gliadins = assay: Degradation of mixed gliadins (SDS-PAGE); format: biochemical, wheat; details: gliadins 250 μg/ml; NattoK 57 μg/ml 0-120 min and dilution series 3.5-0.06 μg/ml 30 min
# Description: FIG. 5A is a representative SDS-PAGE gel of non-digested gliadins (control) and Rmep-treated gliadins. Gliadins (250 μg/ml) in 50 mM Tris/HCl pH 8.0 were incubated with Rmep at 57 μg/ml. After 0, 15 min, 30 min and 2 h incubation 100 μl aliquots were removed, boiled and analyzed by SDS-PAGE and stained with COOMASSIE Brilliant Blue. The bold arrow (left) points to the position of the major band in the gliadin preparation; the thin arrow (right) to the 125 kDa band in the Rmep preparation, and the dotted arrows (right) to the gliadin degradation fragments.
# FIG. 6A is a representative SDS-PAGE gel of non-digested gliadins (control) and subtilisin A-treated gliadins. Gliadins (250 μg/ml) in 50 mM Tris/HCl pH 8.0 were incubated with subtilisin A at 57 μg/ml. Experiments were conducted as described in the legend of FIG. 5 with subtilisin A instead of Rmep.
# FIG. 8A is a representative SDS-PAGE gel of non-digested gliadins (control) and NattoK-treated gliadins. Mixed gliadins (G, 250 μg/ml) were incubated with NattoK (57 μg/ml) for 0, 15, 30 and 120 min. Left four lanes: controls without enzyme or gliadins, respectively, each at t=0 and 120 min. Arrow points to the major components in the gliadin mixture represented by α and γ-gliadins containing most of the immunogenic epitopes.
# as §4
# wheat ATI proteins = assay: Degradation of amylase-trypsin inhibitors (SDS-PAGE); format: biochemical; details: ATIs 500 μg/ml
# Description: as §2, §3
# [3] = test system: R5 epitopes (QQPFP and related pentapeptides) in mixed gliadins; assay: R5 ELISA, gluten epitope elimination in gliadin digests; format: biochemical; details: gliadins 250 μg/ml, NattoK 57 μg/ml, 0-120 min
# Description: FIG. 8E and FIG. 8F show the assessment of the survival of epitopes in the gliadin-NattoK degradation mixture employing the R5 ELISA (FIG. 8E) or G12 ELISA (FIG. 8F) assays. Epitope abolishment in Mixed gliadins (250 μg/ml) were incubated with NattoK (57 μg/ml) for 0, 15, 30 and 120 min and then assayed by the R5 ELISA or G12 ELISA.
# R5 and G12 ELISA assays—Gluten epitope elimination in the gliadin-Rmep and gliadin-subtilisin A digests was assessed using two sandwich ELISA assays employing the R5 monoclonal antibody (RIDASCREEN Gliadin, R-Biopharm, Darmstadt, Germany) or the G12 monoclonal antibody (AgraQuant® ELISA Gluten G12, Romer labs, Union, Mo.). To prevent high background values, the R5 plate wells were blocked with 1% skim milk in PBS prior to incubation with the samples. The assays were performed according to the manufacturers' instructions and as described (21, 24).
# To further investigate this, the time courses of degradation of mixed gliadins and the highly immunogenic 33-mer α-gliadin peptide were determined. Furthermore, epitope elimination was monitored by two ELISA assays employing the R5 antibody recognizing QQPFP (SEQ ID NO: 40) and related pentapeptides (27, 28) and the G12 antibody recognizing QPQLPY (SEQ ID NO: 22) contained in the 33-mer peptide (29, 30). Data obtained with Rmep are shown in FIG. 5, and with subtilisin A in FIG. 6.
molecule,measurement,setting,value
aprotinin,inhibition of Rmep activity,[1],partial inhibition
CC(C)C[C@H](NC(=O)[C@H]1O[C@@H]1C(=O)O)C(=O)NCCCCN=C(N)N [E64],inhibition of Rmep activity,[1],not
"NCCc1ccc(S(=O)(=O)F)cc1 [AEBSF, 4-(2-Aminoethyl) benzenesulfonyl fluoride]",inhibition of Rmep activity,[1],inhibited effectively
"O=C(O)CN(CCN(CC(=O)O)CC(=O)O)CC(=O)O [EDTA, ethylenediaminetetraacetic acid]",inhibition of Rmep activity,[1],not
"O=S(=O)(F)Cc1ccccc1 [PMSF, phenylmethanesulfonyl fluoride]",inhibition of the Rothia subtilisin by PMSF,"[1]; 1 mM PMSF, stated as embodiment",100%
same,inhibition of Rmep activity,[1],inhibited effectively
"NattoK: nattokinase, a 27.7 kDa subtilisin enzyme from B. subtilis, available in pure form as a dietary supplement (protein, listed as Bacillus subtilis) MRSKKLWISLLFALTLIFTMAFSNMSAQAAGKSSTEKKYIVGFKQTMSAMSSAKKKDVISEKGGKVQKQFKYVNAAAATLDEKAVKELKKDPSVAYVEEDHIAHEYAQSVPYGISQIKAPALHSQGYTGSNVKVAVIDSGIDSSHPDLNVRGGASFVPSETNPYQDGSSHGTHVAGTIAALNNSIGVLGVAPSASLYAVKVLDSTGSGQYSWIINGIEWAISNNMDVINMSLGGPTGSTALKTVVDKAVSSGIVVAAAAGNEGSSGSTSTVGYPAKYPSTIAVGAVNSSNQRASFSSVGSELDVMAPGVSIQSTLPGGTYGAYNGTSMATPHVAGAAALILSKHPTWTNAQVRDRLESTATYLGNSFYYGKGLINVQAAAQ",hydrolysis of Suc-AAPF-pNA,Suc-AAPF-pNA,hydrolyzed
same,degradation of gliadins,gliadins,rapidly degraded
same,degradation of the 33-mer peptide,[2],degraded the 33-mer peptide
same,degradation of mixed gliadins,mixed gliadins,degraded gliadins effectively
same,ATIs degraded after 4 h incubation with 10 μg/ml enzyme,"wheat ATI proteins; 10 μg/ml enzyme, 4 h",Approximately 50%
same,ATIs degraded after 1 h incubation with 50 μg/ml enzyme,"wheat ATI proteins; 50 μg/ml enzyme, 1 h",Approximately 50%
same,degradation of wheat ATI proteins,"wheat ATI proteins; enzyme 10, 25 or 50 μg/ml, pH 8.0, up to 4 h",susceptible to proteolysis
same,abolishment of R5 epitopes,[3],abolished
